In CN110845607A (UNIV WEIFANG MEDICAL; SHANDONG KUANHEZHENG BIOMEDICINE CO …, dated 2020):

Molecular target: 牛血清蛋白 (BSA) (bovine, UniProt P02769 25-607)
Assay: ELISA

Sequence of 牛血清蛋白 (BSA) (P02769 25-607 limits assumed): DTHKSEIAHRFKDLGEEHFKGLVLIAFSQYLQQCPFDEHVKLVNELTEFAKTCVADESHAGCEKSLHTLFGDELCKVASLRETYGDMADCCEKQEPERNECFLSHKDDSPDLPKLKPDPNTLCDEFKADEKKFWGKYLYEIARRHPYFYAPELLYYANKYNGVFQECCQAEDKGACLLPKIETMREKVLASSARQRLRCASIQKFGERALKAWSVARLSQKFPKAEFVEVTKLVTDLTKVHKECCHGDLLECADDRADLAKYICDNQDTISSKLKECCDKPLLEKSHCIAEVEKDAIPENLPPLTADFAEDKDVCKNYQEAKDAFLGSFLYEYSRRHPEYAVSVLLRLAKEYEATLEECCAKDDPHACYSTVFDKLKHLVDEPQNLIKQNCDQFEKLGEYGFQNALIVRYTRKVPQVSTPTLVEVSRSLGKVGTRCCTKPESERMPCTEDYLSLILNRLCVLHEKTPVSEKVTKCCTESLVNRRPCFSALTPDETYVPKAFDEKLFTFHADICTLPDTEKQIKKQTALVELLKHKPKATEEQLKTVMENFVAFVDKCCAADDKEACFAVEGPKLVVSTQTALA

B1: F1 Fab片段 (purified Fab fragment of anti-H1N1 monoclonal antibody F1) (Fab, V domains shown)
VH: QVQLKESGDDLVKPGASVKLSCKASGYTFTNYWINWIKQRPGQGLEWIGRTAPGSGSTYYNELFKGKATLTVDTSSSTAYIQLSSLSSEDSAVYFCALSTGTGALDYWGQGTSVTVS
VL: DIVMTQSPLSLPVSLGDQASISCRSSQSLVHSNGNTYLHWYLQKPGQSPKLLIYKVSNRFSGVPDRFSGSGSGTDFTLKISRVEAEDLGVYFCSQSTHVPWTFGGGTKLEIKR
notes: also called 抗体F1Fab; 单克隆抗体F1
binding result: no binding
